Experimental data as given in paper PMC2756588.

T1: Abp1, P15891
T1 sequence (P15891 535-592, looked up): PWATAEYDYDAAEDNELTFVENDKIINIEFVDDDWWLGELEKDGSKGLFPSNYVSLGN

T2: Bbc1, P47068
T2 sequence (P47068 1-78, looked up): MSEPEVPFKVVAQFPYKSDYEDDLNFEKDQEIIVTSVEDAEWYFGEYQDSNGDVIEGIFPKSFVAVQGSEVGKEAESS

T3: Boi1, P38041
T3 sequence (P38041 1-86, looked up): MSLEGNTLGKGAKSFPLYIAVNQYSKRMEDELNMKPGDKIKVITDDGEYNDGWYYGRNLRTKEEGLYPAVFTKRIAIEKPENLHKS

T4: Boi2, P39969
T4 sequence (P39969 32-116, looked up): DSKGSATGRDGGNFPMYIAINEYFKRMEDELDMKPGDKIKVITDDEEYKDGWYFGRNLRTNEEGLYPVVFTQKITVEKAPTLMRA

T5: Bud14, P27637
T5 sequence (P27637 247-328, looked up): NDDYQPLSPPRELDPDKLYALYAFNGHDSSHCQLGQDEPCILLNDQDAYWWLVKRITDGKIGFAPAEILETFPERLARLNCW

T6: Bzz1-1, P38822
T6 sequence (P38822 478-572, looked up): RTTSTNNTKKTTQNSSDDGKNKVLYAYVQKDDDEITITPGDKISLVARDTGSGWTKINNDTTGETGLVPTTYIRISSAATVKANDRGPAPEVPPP

T7: Bzz1-2, P38822
T7 sequence (P38822 568-633, looked up): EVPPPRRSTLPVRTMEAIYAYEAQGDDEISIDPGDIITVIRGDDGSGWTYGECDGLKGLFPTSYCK

T8: Cdc25, P04821
T8 sequence (P04821 50-136, looked up): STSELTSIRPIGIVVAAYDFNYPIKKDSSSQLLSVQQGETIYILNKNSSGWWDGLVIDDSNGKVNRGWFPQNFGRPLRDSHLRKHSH

T9: Cyk3, Q07533
T9 sequence (Q07533 1-83, looked up): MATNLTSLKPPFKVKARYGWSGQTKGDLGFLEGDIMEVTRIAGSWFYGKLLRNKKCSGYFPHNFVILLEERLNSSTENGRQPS

T10: Fus1, P11710
T10 sequence (P11710 432-512, looked up): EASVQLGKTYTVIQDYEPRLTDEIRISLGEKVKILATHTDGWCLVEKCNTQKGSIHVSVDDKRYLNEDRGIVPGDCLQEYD

T11: Hof1, Q05080
T11 sequence (Q05080 590-669, looked up): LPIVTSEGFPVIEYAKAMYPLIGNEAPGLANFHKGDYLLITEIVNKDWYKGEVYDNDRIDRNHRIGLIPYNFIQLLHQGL

T12: Hse1, P38753
T12 sequence (P38753 208-285, looked up): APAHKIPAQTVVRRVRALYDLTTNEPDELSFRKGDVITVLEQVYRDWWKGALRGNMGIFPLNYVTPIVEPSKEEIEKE

T13: Lsb1, P53281
T13 sequence (P53281 45-122, looked up): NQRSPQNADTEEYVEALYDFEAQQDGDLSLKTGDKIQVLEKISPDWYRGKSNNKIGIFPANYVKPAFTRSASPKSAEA

T14: Lsb3, P43603
T14 sequence (P43603 385-451, looked up): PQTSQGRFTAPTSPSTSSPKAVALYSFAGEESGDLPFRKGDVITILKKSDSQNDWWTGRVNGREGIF

T15: Lsb4, P32793
T15 sequence (P32793 402-468, looked up): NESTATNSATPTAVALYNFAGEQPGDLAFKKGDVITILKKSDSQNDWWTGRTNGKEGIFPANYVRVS

T16: Myo5, Q04439
T16 sequence (Q04439 1072-1160, looked up): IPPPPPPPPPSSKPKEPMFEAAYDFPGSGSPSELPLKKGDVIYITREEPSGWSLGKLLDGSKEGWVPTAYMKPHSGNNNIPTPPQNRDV

T17: Nbp2, Q12163
T17 sequence (Q12163 103-180, looked up): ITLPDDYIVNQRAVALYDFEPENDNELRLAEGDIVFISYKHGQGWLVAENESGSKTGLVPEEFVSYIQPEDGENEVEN

T18: Pex13, P80667
T18 sequence (P80667 295-386, looked up): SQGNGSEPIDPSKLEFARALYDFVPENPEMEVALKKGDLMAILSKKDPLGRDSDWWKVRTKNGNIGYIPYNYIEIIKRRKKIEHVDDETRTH

T19: Pin3, Q06449
T19 sequence (Q06449 53-122, looked up): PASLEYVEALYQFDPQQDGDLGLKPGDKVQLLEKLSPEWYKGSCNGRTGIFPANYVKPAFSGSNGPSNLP

T20: Sla1-2, P32790
T20 sequence (P32790 60-140, looked up): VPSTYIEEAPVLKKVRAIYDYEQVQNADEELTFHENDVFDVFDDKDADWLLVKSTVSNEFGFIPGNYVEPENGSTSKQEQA

T21: Sla1-3, P32790
T21 sequence (P32790 344-424, looked up): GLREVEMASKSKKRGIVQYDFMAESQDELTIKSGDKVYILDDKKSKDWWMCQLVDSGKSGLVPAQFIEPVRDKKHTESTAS


molecular target: T1, Abp1, P15891; assay: SPOT array; settings: median of control spots 935

Row | SPOT intensity | Binder
1 | 113 | MARRRLPDRPPNGIG
2 | 7 | AIPPPVPNRPGGTTN
3 | 3 | FYNRTAFQLPGDARV

molecular target: T2, Bbc1, P47068; assay: SPOT array; settings: median of control spots 796

Row | SPOT intensity | Binder
4 | 69 | MARRRLPDRPPNGIG
5 | 196 | AIPPPVPNRPGGTTN
6 | 0 | FYNRTAFQLPGDARV

molecular target: Bem1-1, P29366; assay: SPOT array; settings: median of control spots 4282
Sequence (P29366 55-141): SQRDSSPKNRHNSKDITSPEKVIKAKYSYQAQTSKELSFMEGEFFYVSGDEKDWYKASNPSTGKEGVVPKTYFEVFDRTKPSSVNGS

Row | SPOT intensity | Binder
7 | 0 | MARRRLPDRPPNGIG
8 | 1 | AIPPPVPNRPGGTTN
9 | 0 | FYNRTAFQLPGDARV

molecular target: Bem1-2, P29366; assay: SPOT array; settings: median of control spots 4347
Sequence (P29366 139-227): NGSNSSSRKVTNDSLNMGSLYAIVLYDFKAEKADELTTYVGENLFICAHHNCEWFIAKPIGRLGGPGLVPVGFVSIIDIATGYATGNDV

Row | SPOT intensity | Binder
10 | 78 | MARRRLPDRPPNGIG
11 | 1 | AIPPPVPNRPGGTTN
12 | 1 | FYNRTAFQLPGDARV

molecular target: T3, Boi1, P38041; assay: SPOT array; settings: median of control spots 1162

Row | SPOT intensity | Binder
13 | 0 | MARRRLPDRPPNGIG
14 | 1 | AIPPPVPNRPGGTTN
15 | 0 | FYNRTAFQLPGDARV

molecular target: T4, Boi2, P39969; assay: SPOT array; settings: median of control spots 1161

Row | SPOT intensity | Binder
16 | 0 | MARRRLPDRPPNGIG
17 | 0 | AIPPPVPNRPGGTTN
18 | 0 | FYNRTAFQLPGDARV

molecular target: T5, Bud14, P27637; assay: SPOT array; settings: median of control spots 956

Row | SPOT intensity | Binder
19 | 4 | MARRRLPDRPPNGIG
20 | 2 | AIPPPVPNRPGGTTN
21 | 4 | FYNRTAFQLPGDARV

molecular target: T6, Bzz1-1, P38822; assay: SPOT array; settings: median of control spots 4446

Row | SPOT intensity | Binder
22 | 0 | MARRRLPDRPPNGIG
23 | 2 | AIPPPVPNRPGGTTN
24 | 2 | FYNRTAFQLPGDARV

molecular target: T7, Bzz1-2, P38822; assay: SPOT array; settings: median of control spots 4538

Row | SPOT intensity | Binder
25 | 160 | MARRRLPDRPPNGIG
26 | 0 | AIPPPVPNRPGGTTN
27 | 0 | FYNRTAFQLPGDARV

molecular target: T8, Cdc25, P04821; assay: SPOT array; settings: median of control spots 969

Row | SPOT intensity | Binder
28 | 14 | MARRRLPDRPPNGIG
29 | 0 | AIPPPVPNRPGGTTN
30 | 0 | FYNRTAFQLPGDARV

molecular target: T9, Cyk3, Q07533; assay: SPOT array; settings: median of control spots 1451

Row | SPOT intensity | Binder
31 | 0 | MARRRLPDRPPNGIG
32 | 2 | AIPPPVPNRPGGTTN
33 | 0 | FYNRTAFQLPGDARV

molecular target: T10, Fus1, P11710; assay: SPOT array; settings: median of control spots 1200

Row | SPOT intensity | Binder
34 | 0 | MARRRLPDRPPNGIG
35 | 0 | AIPPPVPNRPGGTTN
36 | 0 | FYNRTAFQLPGDARV

molecular target: GST; assay: SPOT array; settings: median of control spots 978

Row | SPOT intensity | Binder
37 | 0 | MARRRLPDRPPNGIG
38 | 0 | AIPPPVPNRPGGTTN
39 | 0 | FYNRTAFQLPGDARV

molecular target: T11, Hof1, Q05080; assay: SPOT array; settings: median of control spots 4086

Row | SPOT intensity | Binder
40 | 130 | MARRRLPDRPPNGIG
41 | 1 | AIPPPVPNRPGGTTN
42 | 0 | FYNRTAFQLPGDARV

molecular target: T12, Hse1, P38753; assay: SPOT array; settings: median of control spots 1727

Row | SPOT intensity | Binder
43 | 126 | MARRRLPDRPPNGIG
44 | 22 | AIPPPVPNRPGGTTN
45 | 2 | FYNRTAFQLPGDARV

molecular target: T13, Lsb1, P53281; assay: SPOT array; settings: median of control spots 388

Row | SPOT intensity | Binder
46 | 587 | MARRRLPDRPPNGIG
47 | 948 | AIPPPVPNRPGGTTN
48 | 2060 | FYNRTAFQLPGDARV

molecular target: T14, Lsb3, P43603; assay: SPOT array; settings: median of control spots 406

Row | SPOT intensity | Binder
49 | 175 | MARRRLPDRPPNGIG
50 | 453 | AIPPPVPNRPGGTTN
51 | 2 | FYNRTAFQLPGDARV

molecular target: T15, Lsb4, P32793; assay: SPOT array; settings: median of control spots 397

Row | SPOT intensity | Binder
52 | 533 | MARRRLPDRPPNGIG
53 | 222 | AIPPPVPNRPGGTTN
54 | 0 | FYNRTAFQLPGDARV

molecular target: Myo3, P36006; assay: SPOT array; settings: median of control spots 468

Row | SPOT intensity | Binder
55 | 15 | MARRRLPDRPPNGIG
56 | 8 | AIPPPVPNRPGGTTN
57 | 1 | FYNRTAFQLPGDARV

molecular target: T16, Myo5, Q04439; assay: SPOT array; settings: median of control spots 471

Row | SPOT intensity | Binder
58 | 5 | MARRRLPDRPPNGIG
59 | 0 | AIPPPVPNRPGGTTN
60 | 1 | FYNRTAFQLPGDARV

molecular target: T17, Nbp2, Q12163; assay: SPOT array; settings: median of control spots 357

Row | SPOT intensity | Binder
61 | 3 | MARRRLPDRPPNGIG
62 | 1 | AIPPPVPNRPGGTTN
63 | 2 | FYNRTAFQLPGDARV

molecular target: T18, Pex13, P80667; assay: SPOT array; settings: median of control spots 1341

Row | SPOT intensity | Binder
64 | 99 | MARRRLPDRPPNGIG
65 | 375 | AIPPPVPNRPGGTTN
66 | 6 | FYNRTAFQLPGDARV

molecular target: T19, Pin3, Q06449; assay: SPOT array; settings: median of control spots 2171

Row | SPOT intensity | Binder
67 | 91 | MARRRLPDRPPNGIG
68 | 48 | AIPPPVPNRPGGTTN
69 | 151 | FYNRTAFQLPGDARV

molecular target: Rvs167, P39743; assay: SPOT array; settings: median of control spots 2707
Sequence (P39743 419-482): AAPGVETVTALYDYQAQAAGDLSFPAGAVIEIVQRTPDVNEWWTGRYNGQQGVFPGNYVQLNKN

Row | SPOT intensity | Binder
70 | 1590 | MARRRLPDRPPNGIG
71 | 1430 | AIPPPVPNRPGGTTN
72 | 0 | FYNRTAFQLPGDARV

molecular target: Sho1, P40073; assay: SPOT array; settings: median of control spots 1148
Sequence (P40073 287-367): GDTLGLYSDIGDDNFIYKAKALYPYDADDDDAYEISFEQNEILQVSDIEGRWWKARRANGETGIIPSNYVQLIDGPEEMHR

Row | SPOT intensity | Binder
73 | 393 | MARRRLPDRPPNGIG
74 | 0 | AIPPPVPNRPGGTTN
75 | 4 | FYNRTAFQLPGDARV

molecular target: T20, Sla1-2, P32790; assay: SPOT array; settings: median of control spots 712

Row | SPOT intensity | Binder
76 | 1 | MARRRLPDRPPNGIG
77 | 0 | AIPPPVPNRPGGTTN
78 | 0 | FYNRTAFQLPGDARV

molecular target: T21, Sla1-3, P32790; assay: SPOT array; settings: median of control spots 5475

Row | SPOT intensity | Binder
79 | 36 | MARRRLPDRPPNGIG
80 | 1 | AIPPPVPNRPGGTTN
81 | 5 | FYNRTAFQLPGDARV
